Experimental data reported in paper PMC9278117.

What was measured:
[1] = biological target: CB6 monoclonal antibody; assay: BLI
[2] = biological target: 4A8 monoclonal antibody; assay: BLI

| Substance | Kd [1] [nM] | Kd [2] [nM] |
| --- | --- | --- |
| S1-I53-50 NP (from UniProt P0DTC2 16-685) (complex) | < 0.001 | 0.0736 |
| S1-ferritin NP (from UniProt P0DTC2 16-685) (complex) | < 0.001 | 1.18 |
| S1-mi3 NP (from UniProt P0DTC2 16-685) (complex) | < 0.001 | < 0.001 |
